Experiments:
[1] = target: T1, human FGFR3b expressed with a C-terminal murine Fc tag (hFGFR3b.mFc) (human); assay: competition ELISA: 4 nM hFGFR3b-mFc binding to plate-coated hFGF acidic
T1 construct: called dimeric; also called REGN3153; dimeric human FGFR3b
T1 chain: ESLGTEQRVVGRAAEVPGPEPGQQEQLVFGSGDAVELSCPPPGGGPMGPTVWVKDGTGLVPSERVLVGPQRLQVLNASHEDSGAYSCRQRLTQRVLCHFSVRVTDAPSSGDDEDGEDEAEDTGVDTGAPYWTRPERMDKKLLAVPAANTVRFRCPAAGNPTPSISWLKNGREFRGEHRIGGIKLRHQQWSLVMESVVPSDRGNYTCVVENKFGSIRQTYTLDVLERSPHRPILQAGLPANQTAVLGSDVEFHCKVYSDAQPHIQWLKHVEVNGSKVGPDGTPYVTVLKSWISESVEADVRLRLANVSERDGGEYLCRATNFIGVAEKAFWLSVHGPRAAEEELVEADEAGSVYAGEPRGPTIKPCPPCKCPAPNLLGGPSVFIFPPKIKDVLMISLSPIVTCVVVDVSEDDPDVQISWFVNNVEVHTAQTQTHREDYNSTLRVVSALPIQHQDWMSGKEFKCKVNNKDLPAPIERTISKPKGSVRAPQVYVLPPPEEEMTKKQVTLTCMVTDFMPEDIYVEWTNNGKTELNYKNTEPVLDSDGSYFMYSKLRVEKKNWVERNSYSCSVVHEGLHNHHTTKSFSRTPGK

[2] = target: T2, murine FGFR3b expressed with a C-terminal myc-myc-hexahistidine tag (mFGFR3b.mmH) (murine); assay: SPR Biacore, mAb captured on anti-hFc, 25C
T2 construct: also called REGN3215; monomeric murine FGFR3b
T2 chain: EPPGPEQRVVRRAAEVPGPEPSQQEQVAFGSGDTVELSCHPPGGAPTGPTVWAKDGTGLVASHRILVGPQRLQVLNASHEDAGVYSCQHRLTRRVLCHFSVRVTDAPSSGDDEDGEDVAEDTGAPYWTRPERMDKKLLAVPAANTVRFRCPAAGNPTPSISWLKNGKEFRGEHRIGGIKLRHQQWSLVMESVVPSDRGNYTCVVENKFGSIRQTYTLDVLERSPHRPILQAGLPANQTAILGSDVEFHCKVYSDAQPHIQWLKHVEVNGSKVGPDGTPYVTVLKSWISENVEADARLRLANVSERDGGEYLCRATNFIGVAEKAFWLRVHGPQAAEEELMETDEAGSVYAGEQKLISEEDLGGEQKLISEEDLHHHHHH

[3] = target: T3, human FGFR3b expressed with a C-terminal myc-myc-hexahistidine tag (hFGFR3b.mmH) (human); assay: SPR Biacore, mAb captured on anti-hFc, 25C
T3 construct: also called REGN3152; monomeric human FGFR3b
T3 chain: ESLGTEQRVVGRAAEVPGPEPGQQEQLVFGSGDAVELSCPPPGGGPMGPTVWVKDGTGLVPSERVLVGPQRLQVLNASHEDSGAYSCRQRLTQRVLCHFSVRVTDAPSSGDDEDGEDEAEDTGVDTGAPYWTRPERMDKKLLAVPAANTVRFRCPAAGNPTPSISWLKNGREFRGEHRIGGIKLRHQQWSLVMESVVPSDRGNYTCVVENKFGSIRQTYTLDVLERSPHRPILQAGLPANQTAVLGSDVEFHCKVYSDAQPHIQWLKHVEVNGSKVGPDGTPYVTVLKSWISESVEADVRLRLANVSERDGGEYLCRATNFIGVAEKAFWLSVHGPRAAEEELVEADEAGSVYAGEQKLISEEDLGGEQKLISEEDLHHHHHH

[4] = target: full length human FGFR3b S249C on BaF3 cells (BAF3/FGFR3b_S249C, ACL11986) (human, UniProt P22607 23-808); assay: cell-based or functional assay
[5] = target: full length human FGFR3b on BaF3 cells (BAF3/FGFR3b, ACL11991) (human, UniProt P22607 23-808); assay: cell-based or functional assay

B1: H4H30063P (antibody, human IgG4 S228P, kappa, V domains shown)
VH: QVQLQESGPGLVKPSETLSLTCTVSGDSINSYFWSWIRQLPGKELEWIGHIYSSGSTRYNPSLQSRVTISIDTSKNQFSLKLSSVTAADTAVYYCARGASAVDYWGQGTLVTVSS
VL: EIVLTQSPGTLSLSPGERATLSCRTSQSISSGYLAWYQQKPGQAPRLLIYGASRRATGIPDRFSGSGSGTDFTLTISRLEPEDFVVYYCQQYGSSPYTFGQGTKLEIKR
notes: HCVR 2, LCVR 10; also called REGN15684
% Blocking at 200 nM mAb [1]: 95%
IC50 [1]: 2000 pM
90 nM mFGFR3b.mmH Bind (RU) [2]: 259 RU
Kd [2]: 137 pM
koff [2]: 2.78e-05 s⁻¹
kon [2]: 204000 M⁻¹ s⁻¹
t½ [2]: 6.92 h
90 nM hFGFR3b.mmH Bind (RU) [3]: 240 RU
Kd [3]: 222 pM
koff [3]: 3.83e-05 s⁻¹
kon [3]: 172000 M⁻¹ s⁻¹
t½ [3]: 5.03 h
IC50 [M], BaF3 proliferation (CellTiter-Glo) with 1 nM FGF1 + 5 ug/ml heparin [4]: 5.08e-10 M
Max Blocking (%), BaF3 proliferation (CellTiter-Glo) with 1 nM FGF1 + 5 ug/ml heparin [4]: 93.4%
IC50 [M], BaF3 proliferation (CellTiter-Glo) with 1 nM FGF1 + 5 ug/ml heparin [5]: 6.06e-10 M
Max Blocking (%), BaF3 proliferation (CellTiter-Glo) with 1 nM FGF1 + 5 ug/ml heparin [5]: 98%

— patent US20240158515A1 (Regeneron, published 2024)
